The results in this text go back to article PMC8125178, “Fluorescence Correlation Spectroscopy Analysis of Effect of Molecular Crowding on Self-Assembly of β-Annulus Peptide into Artificial Viral Capsid” (International Journal of Molecular Sciences, 2021).

In series [1] the target is T1, BODIPY-β-annulus peptide (tomato bushy stunt virus, BODIPY-maleimide added by Michael addition to the thiol of the N-terminal Cys).
T1 construct: also called BODIPY-labelled β-annulus peptide; fluorescent-labelled β-annulus peptide; source: synthetic peptide (solid-phase Fmoc chemistry; labelled with BODIPY-maleimide; purified by reversed-phase HPLC)
T1 peptide: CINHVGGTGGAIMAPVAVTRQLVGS
Nature of the series: fluorescence correlation spectroscopy (FCS); 0.1 μM BODIPY-β-annulus peptide with 0~200 μM β-annulus peptide in 10 mM Tris-HCl buffer (pH 7.0) with 5 wt% PEG2000, 25 °C; ratio of the slow component fitted to the Hill equation. The following applies: both partners purified.

Series [2] concerns the molecule itself. The series is described as above.
For series [3], the target named is T1, BODIPY-β-annulus peptide. The series is described as above. To be noted: both partners purified.
In series [4] the target is T1, BODIPY-β-annulus peptide. In words: fluorescence correlation spectroscopy (FCS); 0.1 μM BODIPY-β-annulus peptide with 0~200 μM β-annulus peptide in 10 mM Tris-HCl buffer (pH 7.0) with 10 wt% PEG2000, 25 °C; ratio of the slow component fitted to the Hill equation. The following applies: both partners purified.
For series [5], the target named is T1, BODIPY-β-annulus peptide. In words: fluorescence correlation spectroscopy (FCS); 0.1 μM BODIPY-β-annulus peptide with 0~200 μM β-annulus peptide in 10 mM Tris-HCl buffer (pH 7.0) with 15 wt% PEG2000, 25 °C; ratio of the slow component fitted to the Hill equation. To be noted: both partners purified.
Series [6] concerns the target T1, BODIPY-β-annulus peptide. In words: fluorescence correlation spectroscopy (FCS); 0.1 μM BODIPY-β-annulus peptide with 0~200 μM β-annulus peptide in 10 mM Tris-HCl buffer (pH 7.0) with 20 wt% PEG2000, 25 °C; ratio of the slow component fitted to the Hill equation. To be noted: both partners purified.
Series [7] addresses T1, BODIPY-β-annulus peptide. In words: fluorescence correlation spectroscopy (FCS); 0.1 μM BODIPY-β-annulus peptide with 0~200 μM β-annulus peptide in 10 mM Tris-HCl buffer (pH 7.0), sonicated 10 min, incubated 30 min, 25 °C; ratio of the slow component fitted to the Hill equation; apparent Kd. The following applies: both partners purified.
Series [8] has as its target T1, BODIPY-β-annulus peptide. Described as above. To be noted: both partners purified.

B1: 24-mer β-annulus peptide from tomato bushy stunt virus (peptide)
peptide: INHVGGTGGAIMAPVAVTRQLVGS
notes: also called unmodified β-annulus peptide; source: synthetic peptide (solid-phase Fmoc chemistry, purified by reversed-phase HPLC)
Turning to B1, the “ratio of the slow component at 200 μM β-annulus” value worked out at 76% with BODIPY-β-annulus peptide [1] and 62% with BODIPY-β-annulus peptide [7]. For the same molecule, the binding result in series [2] is recorded as “binds”. The Kd with BODIPY-β-annulus peptide [3] was determined as 14.4 ± 7.81 µM; in the series with BODIPY-β-annulus peptide [4], 6.69 ± 3.25 µM; in the series with BODIPY-β-annulus peptide [5], 4.24 ± 3.22 µM; with BODIPY-β-annulus peptide [6], 5.66 ± 2.15 µM; with BODIPY-β-annulus peptide [8], 45.2 ± 10.6 µM.
